According to patent US20250230240A1 (LAVA THERAPEUTICS N V, published 2025):

Key:
[1] = target: Vγ9Vδ2 T cell receptor on expanded primary human Vγ9Vδ2 T cells (human) (UniProt Q99603); assay: cell-based or functional assay
[2] = target: T1, recombinant purified CD123-Fc fusion protein (Bio-Techne/R&D Systems) (human, UniProt P26951 19-305, limits assumed); assay: BLI (Octet Red96e), CD123-Fc on anti-human IgG Fc capture sensors; measured twice, SD 0.4
T1 construct: Bought protein; also called recombinant CD123; not shown: Fc part of the bought fusion protein
T1 sequence (looked up): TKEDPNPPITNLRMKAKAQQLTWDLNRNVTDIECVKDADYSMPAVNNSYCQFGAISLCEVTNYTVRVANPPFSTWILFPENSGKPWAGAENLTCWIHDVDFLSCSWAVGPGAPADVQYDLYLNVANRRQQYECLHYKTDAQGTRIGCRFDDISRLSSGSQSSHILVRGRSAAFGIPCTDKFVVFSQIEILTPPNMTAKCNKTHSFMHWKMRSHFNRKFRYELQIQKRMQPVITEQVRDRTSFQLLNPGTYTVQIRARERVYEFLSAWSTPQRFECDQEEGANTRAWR

[3] = target: T1, recombinant purified CD123-Fc fusion …; assay: BLI (Octet Red96e), CD123-Fc on anti-human IgG Fc capture sensors; measured twice, SD 1.5
[4] = target: T1, recombinant purified CD123-Fc fusion …; assay: BLI (Octet Red96e), CD123-Fc on anti-human IgG Fc capture sensors; *low binding (>20 nM), one measurement only
[5] = target: T1, recombinant purified CD123-Fc fusion …; assay: BLI (Octet Red96e), CD123-Fc on anti-human IgG Fc capture sensors; measured twice, SD 4.3
[6] = target: T1, recombinant purified CD123-Fc fusion …; assay: BLI (Octet Red96e), CD123-Fc on anti-human IgG Fc capture sensors; measured twice, SD 0.5
[7] = target: T1, recombinant purified CD123-Fc fusion …; assay: BLI (Octet Red96e), CD123-Fc on anti-human IgG Fc capture sensors; measured twice, SD 7.5
[8] = target: T1, recombinant purified CD123-Fc fusion …; assay: BLI (Octet Red96e), CD123-Fc on anti-human IgG Fc capture sensors; measured twice, SD 0.7
Method: Different sensors were then dipped in different concentrations of humanized 1D2-5C8var1 variants, starting at 50 nM and two-fold dilutions thereof; dilutions were made in 10x kinetic buffer (10×KB) provided by the supplier. From the obtained sensorgrams, the kinetic association- and dissociation rate constants were determined by curve fitting. The association- and dissociation rate constants, when fitting was possible, were used to calculate the affinity of the humanized 1D2-5C8var1 variants for binding to CD123. […] For reference, the non-humanized (parental) 1D2 was included in these experiments.

[9] = target: Recombinant human Vγ9Vδ2-Fc fusion protein (human) (UniProt Q99603); assay: BLI (Octet RED96), Vγ9Vδ2-Fc captured on anti-human Fc sensors, VHH as analyte, 1:1 fit; mean of at least three measurements +/- SD
[10] = target: Recombinant human Vγ9Vδ2-Fc fusion protein (human) (UniProt Q99603); assay: BLI (Octet), single VHH on recombinant Vγ9Vδ2 TCR protein
[11] = target: Recombinant human Vγ9Vδ2-Fc fusion protein (human) (UniProt Q99603); assay: BLI (Octet), single VHH on recombinant Vγ9Vδ2 TCR
[12] = target: Vγ9Vδ2 T cell receptor on expanded primary human Vγ9Vδ2 T cells (human), Q99603; assay: cell-based or functional assay
Chain of Vγ9Vδ2 T cell receptor on expanded primary human Vγ9Vδ2 T cells (human), Q99603 (Q99603 21-122, stated change not applied, chain 1 of 2): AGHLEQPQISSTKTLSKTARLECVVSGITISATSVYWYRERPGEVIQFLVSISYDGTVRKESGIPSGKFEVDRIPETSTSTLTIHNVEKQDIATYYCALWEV
Chain of Vγ9Vδ2 T cell receptor on expanded primary human Vγ9Vδ2 T cells (human), Q99603 (A0JD36 20-115, stated change not applied, chain 2 of 2, further chain): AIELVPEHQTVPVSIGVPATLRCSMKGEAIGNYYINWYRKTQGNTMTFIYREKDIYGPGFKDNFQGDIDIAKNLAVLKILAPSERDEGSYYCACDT

Chain of Vγ9Vδ2 T cell receptor on expanded primary human Vγ9Vδ2 T cells (human) (Q99603 21-122, stated change not applied, chain 1 of 2): as the sequence (Q99603 21-122, stated change not applied, chain 1 of 2) above
Chain of Vγ9Vδ2 T cell receptor on expanded primary human Vγ9Vδ2 T cells (human) (A0JD36 20-115, stated change not applied, chain 2 of 2, further chain): as the sequence (A0JD36 20-115, stated change not applied, chain 2 of 2, further chain) above

bispecific VHH 7D12-5C8 (non-humanized) (bispecific antibody)
EC50 cytotoxicity (A431 tumour cell kill, 24 h) [1]: 0.009 nM | EC50 degranulation (CD107A+ Vγ9Vδ2 T cells, 4 h, A431 target cells) [1]: 0.01 nM

B1: SEQ ID NO 26 (Table 12): humanized 1D2 variant as bispecific VHH with 5C8var1 (bispecific antibody)
chain: EVQLVESGGGLVQPGGSLRLSCAASGRTASSYVMGWFRQAPGKEREFVSVINWNGDSTYYADSVKGRFTISRDNSKNTLYLQMNSLRAEDTAVYYCAADTRREWYRDGYWGPPARYEYDYRGQGTQVTVSSGGGGSEVQLLESGGGSVQPGGSLRLSCAASGRPFSNYAMSWFRQAPGKEREFVSAISWSGGSTSYADSVKGRFTISRDNSKNTLYLQMNSLRAEDTAVYYCAAQFSGADYGFGRLGIRGYEYDYWGQGTQVTVSS
Kd [2]: 7.2 nM

B2: SEQ ID NO 30 (Table 12): humanized 1D2 variant as bispecific VHH with 5C8var1 (bispecific antibody)
chain: EVQLVESGGGLVQPGGSLRLSCAASGRTASSYVMSWFRQAPGKEREFVAVINWNGDSTYYADSVKGRFTISRDNSKNTVYLQMNSLRAEDTAVYYCAADTRREWYRDGYWGPPARYEYDYRGQGTLVTVSSGGGGSEVQLLESGGGSVQPGGSLRLSCAASGRPFSNYAMSWFRQAPGKEREFVSAISWSGGSTSYADSVKGRFTISRDNSKNTLYLQMNSLRAEDTAVYYCAAQFSGADYGFGRLGIRGYEYDYWGQGTQVTVSS
Kd [3]: 7.7 nM

B3: SEQ ID NO 33 (Table 12): humanized 1D2 variant as bispecific VHH with 5C8var1 (bispecific antibody)
chain: EVQLVESGGGLVQPGGSLRLSCAASGRTASSYVMSWFRQAPGKGLEWVAVINWNGDSTYYADSVKGRFTISRDNSKNTVYLQMNSLRAEDTAVYYCAADTRREWYRDGYWGPPARYEYDYRGQGTLVTVSSGGGGSEVQLLESGGGSVQPGGSLRLSCAASGRPFSNYAMSWFRQAPGKEREFVSAISWSGGSTSYADSVKGRFTISRDNSKNTLYLQMNSLRAEDTAVYYCAAQFSGADYGFGRLGIRGYEYDYWGQGTQVTVSS
Kd [4]: 44.1 nM

B4: SEQ ID NO 31 (Table 12): humanized 1D2 variant as bispecific VHH with 5C8var1 (bispecific antibody)
chain: EVQLVESGGGLVQPGGSLRLSCAASGRTASSYVMGWVRQAPGKGLEWVSVINWNGDSTYYADSVKGRFTISRDNSKNTLYLQMNSLRAEDTAVYYCAADTRREWYRDGYWGPPARYEYDYRGQGTLVTVSSGGGGSEVQLLESGGGSVQPGGSLRLSCAASGRPFSNYAMSWFRQAPGKEREFVSAISWSGGSTSYADSVKGRFTISRDNSKNTLYLQMNSLRAEDTAVYYCAAQFSGADYGFGRLGIRGYEYDYWGQGTQVTVSS
Kd [4]: 29.1 nM

B5: SEQ ID NO 27 (Table 12): humanized 1D2 variant as bispecific VHH with 5C8var1 (bispecific antibody)
chain: EVQLVESGGGLVQPGGSLRLSCAASGRTASSYVMGWVRQAPGKEREWVSVINWNGDSTYYADSVKGRFTISRDNSKNTLYLQMNSLRAEDTAVYYCAADTRREWYRDGYWGPPARYEYDYRGQGTLVTVSSGGGGSEVQLLESGGGSVQPGGSLRLSCAASGRPFSNYAMSWFRQAPGKEREFVSAISWSGGSTSYADSVKGRFTISRDNSKNTLYLQMNSLRAEDTAVYYCAAQFSGADYGFGRLGIRGYEYDYWGQGTQVTVSS
Kd [4]: 24.5 nM

B6: SEQ ID NO 28 (Table 12): humanized 1D2 variant as bispecific VHH with 5C8var1 (bispecific antibody)
chain: EVQLVESGGGLVQPGGSLRLSCAASGRTASSYVMSWFRQAPGKEREWVAVINWNGDSTYYADSVKGRFTISRDNSKNTVYLQMNSLRAEDTAVYYCAADTRREWYRDGYWGPPARYEYDYRGQGTLVTVSSGGGGSEVQLLESGGGSVQPGGSLRLSCAASGRPFSNYAMSWFRQAPGKEREFVSAISWSGGSTSYADSVKGRFTISRDNSKNTLYLQMNSLRAEDTAVYYCAAQFSGADYGFGRLGIRGYEYDYWGQGTQVTVSS
Kd [5]: 14.9 nM

B7: SEQ ID NO 34 (Table 12): humanized 1D2 variant as bispecific VHH with 5C8var1 (bispecific antibody)
chain: EVQLVESGGGLVQAGGSLRLSCAASGRTASSYVMGWFRQAPGKEREWVAVINWNGDSTYYTDSVKGRFAISRDNAKNTVYLQMNSLRAEDTAVYYCAADTRREWYRDGYWGPPARYEYDYRGQGTQVTVSSGGGGSEVQLLESGGGSVQPGGSLRLSCAASGRPFSNYAMSWFRQAPGKEREFVSAISWSGGSTSYADSVKGRFTISRDNSKNTLYLQMNSLRAEDTAVYYCAAQFSGADYGFGRLGIRGYEYDYWGQGTQVTVSS
Kd [6]: 2.6 nM

B8: SEQ ID NO 29 (Table 12): humanized 1D2 variant as bispecific VHH with 5C8var1 (bispecific antibody)
chain: EVQLVESGGGVVQPGGSLRLSCAASGRTASSYVMSWFRQAPGKEREWVAVINWNGDSTYYADSVKGRFTISRDNSKNTLYLQMNSLRAEDTAVYYCAADTRREWYRDGYWGPPARYEYDYRGQGTTVTVSSGGGGSEVQLLESGGGSVQPGGSLRLSCAASGRPFSNYAMSWFRQAPGKEREFVSAISWSGGSTSYADSVKGRFTISRDNSKNTLYLQMNSLRAEDTAVYYCAAQFSGADYGFGRLGIRGYEYDYWGQGTQVTVSS
Kd [7]: 20 nM

B9: SEQ ID NO 1 (Table 12): non-humanized (parental) anti-CD123 VHH 1D2 (VHH)
VHH: EVQLVESGGGLVQAGGSLRLSCAASGRTASSYVMGWFRQAPGKEREFVAVINWNGDSTYYTDSVKGRFAISRDNAKNTVYLQMNSLKPEDTAVYYCAADTRREWYRDGYWGPPARYEYDYRGQGTQVTVSS
notes: also called parental 1D2
Kd [8]: 3.1 nM

B10: VHH 5C8var1 (VHH)
VHH: EVQLLESGGGSVQPGGSLRLSCAASGRPFSNYAMSWFRQAPGKEREFVSAISWSGGSTSYADSVKGRFTISRDNSKNTLYLQMNSLRAEDTAVYYCAAQFSGADYGFGRLGIRGYEYDYWGQGTQVTVSS
modifications: Y105 partly sulfated (as found for 5C8 and for 1D12var5-5C8var1)
Kd [9]: 0.81 nM

B11: VHH 5C8var1-Y105F/R109A (VHH)
VHH: EVQLLESGGGSVQPGGSLRLSCAASGRPFSNYAMSWFRQAPGKEREFVSAISWSGGSTSYADSVKGRFTISRDNSKNTLYLQMNSLRAEDTAVYYCAAQFSGADFGFGALGIRGYEYDYWGQGTQVTVSS
Kd [10]: 1.2 nM

B12: VHH 5C8var1-Y105S (VHH)
VHH: EVQLLESGGGSVQPGGSLRLSCAASGRPFSNYAMSWFRQAPGKEREFVSAISWSGGSTSYADSVKGRFTISRDNSKNTLYLQMNSLRAEDTAVYYCAAQFSGADSGFGRLGIRGYEYDYWGQGTQVTVSS
Kd [9]: 1.59 nM

B13: VHH 5C8var1-Y105F/R109K (VHH)
VHH: EVQLLESGGGSVQPGGSLRLSCAASGRPFSNYAMSWFRQAPGKEREFVSAISWSGGSTSYADSVKGRFTISRDNSKNTLYLQMNSLRAEDTAVYYCAAQFSGADFGFGKLGIRGYEYDYWGQGTQVTVSS
Kd [10]: 0.82 nM

B14: VHH 5C8var1-Y105F/G108A (VHH)
VHH: EVQLLESGGGSVQPGGSLRLSCAASGRPFSNYAMSWFRQAPGKEREFVSAISWSGGSTSYADSVKGRFTISRDNSKNTLYLQMNSLRAEDTAVYYCAAQFSGADFGFARLGIRGYEYDYWGQGTQVTVSS
Kd [10]: 9.2 nM | fold reduction of affinity against 5C8var1-Y105F [11]: 10 fold

B15: VHH 5C8var1-Y105F (VHH)
VHH: EVQLLESGGGSVQPGGSLRLSCAASGRPFSNYAMSWFRQAPGKEREFVSAISWSGGSTSYADSVKGRFTISRDNSKNTLYLQMNSLRAEDTAVYYCAAQFSGADFGFGRLGIRGYEYDYWGQGTQVTVSS
Kd [10]: 0.74 nM | Kd [9]: 0.78 nM

B16: bispecific VHH 7D12var8-5C8var1-Y105F (bispecific antibody)
chain: EVQLVESGGGSVQPGGSLRLSCAASGRTSRSYGMGWFRQAPGKEREFVSGISWRGDSTGYADSVKGRFTISRDNAKNTVDLQMNSLRAEDTAVYYCAAAAGSAWYGTLYEYDYWGQGTLVTVSSGGGGSEVQLLESGGGSVQPGGSLRLSCAASGRPFSNYAMSWFRQAPGKEREFVSAISWSGGSTSYADSVKGRFTISRDNSKNTLYLQMNSLRAEDTAVYYCAAQFSGADFGFGRLGIRGYEYDYWGQGTQVTVSS
EC50 cytotoxicity (A431 tumour cell kill, 24 h) [12]: 0.0025 nM | EC50 degranulation (CD107A+ Vγ9Vδ2 T cells, 4 h, A431 target cells) [12]: 0.011 nM
